For this assay, the target named is T1, human TRβ1ΔAB (TR DBD-LBD), thyroid hormone receptor β1 residues 102-461 (human, UniProt P10828-1 102-461).
T1 construct: Holo form (T3/TR) made by adding T3 in 3 times molar excess; also called TR DL; TRβ1 DL
T1 sequence (looked up): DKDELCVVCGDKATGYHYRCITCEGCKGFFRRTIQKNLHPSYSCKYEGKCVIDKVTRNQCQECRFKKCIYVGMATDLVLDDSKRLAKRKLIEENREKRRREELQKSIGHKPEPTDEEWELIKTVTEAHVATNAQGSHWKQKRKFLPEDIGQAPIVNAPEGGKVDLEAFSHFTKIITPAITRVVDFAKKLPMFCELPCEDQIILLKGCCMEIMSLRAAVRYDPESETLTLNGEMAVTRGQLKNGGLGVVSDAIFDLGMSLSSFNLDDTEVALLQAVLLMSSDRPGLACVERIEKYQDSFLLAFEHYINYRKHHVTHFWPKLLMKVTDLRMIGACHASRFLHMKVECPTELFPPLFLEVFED
As to the kind of experiment: fluorescence polarisation; fluorescence anisotropy; 10nM fluorescein-labeled GATA2-Zf titrated with unlabeled, unliganded TR DBD-LBD or TR DBD, 1nM to 10.000nM; 10°C, 50mM NaCl, 20mM Hepes pH8.0, 3mM dithiothreitol, 5% glycerol. Conditions: both partners purified.

B1: fluorescein-labelled zinc finger region of GATA2 (GATA2-Zf), residues 291-412 (domain or fragment)
chain: not shown
modifications: fluorescein (fluorescein-isothiocyanate, three times molar excess; site not stated)
notes: GATA2, zinc finger region, residues 291-412; removal of the His tag is surmised from that; Two vectors are named (pET31a, pET28a(+)); also called fluorophore-labelled GATA2-Zf; fluorescein-labeled GATA2-Zf
By Kd is commonly meant the free concentration of one partner at which half of the binding sites on the other are occupied at equilibrium, for simple one-to-one binding. Low values mean a tighter complex, high ones a looser complex. B1 showed a Kd of 1170 nM.

(Values after publication PMC2935386, “Dissecting the Relation between a Nuclear Receptor and GATA: Binding Affinity Studies of Thyroid Hormone Receptor and GATA2 on TSHβ Promoter” (PLoS ONE, 2010).)
